Laboratory results reported in the nanobody polyreactivity screen of Harvey et al. (2022).

Assay: yeast display, Sf9 membrane polyspecificity reagent, FACS + sequencing; frameworks hold sequencing errors
Procedure, shortened: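 Galactose-induced (36–48 hours) yeast carrying a synthetic nanobody display library were exposed to 10% biotinylated, detergent-solubilized Sf9 membrane reagent at 4 °C for 1 hour. FACS followed streptavidin microbead enrichment, using low and high (top ~1%) gates for expression (anti-HA) and reagent binding (streptavidin). Colony PCR, MiSeq 2 × 250 sequencing and CDR-length filtering followed. Labels for polyreactivity reflect the gate of origin.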

| Sequence | polyreactivity (PSR sort gate) |
| --- | --- |
| QVQLVESGGGLVQAGGSLRLSCAASGRIFVPNAMGWYRQAPGKERELVARISRSDGSTYYADSVKGRFTISRDNAKNTVYFPMNSLKPEDTAVYYCAASTTPRWWSFKYYYWGQGTQVTVSS | high polyreactivity |
| QVQLVESVGGLVQAGGSLRLSCAASGRTFAYTAMGWYRQARGKDREWLAAITWSGDSTYYADSVKGRFTISRDNAKNTVSLQKNSLKPEDTAVYYCAADYFGGPSYEFVYWGQGTQVTGSS | low polyreactivity |
| QVQLVESGGGLVQAGGSLRLSCAASGSIFSRYTMGWYRQAPGKERELVAAISYSGTRTYYADSVKGRFTISRDNAKNTVYLQMNSLKPEDTAVYYCAAIASPAGSNYWGQGTQVTVSS | high polyreactivity |
| QVQLVESGGGLVQAGGSLRLSCAASGSTFKYNTMGWYRQAPGKERELVATISTGGSTYYADSVKGRFTISRDNAKNTVYLQMNSLKPEDTAVYYCAADGARRNTYRYDYWGQGTQVTVSS | low polyreactivity |
| QVQLVESGGGLVQAGGSLRLSCAASGRTFYPYAMGWYRQAPGKERELVAAIRSSGGTTYYADSVKGRFTISRDNAKNTVYLQMNSLKPEDTAVYYCAAYVDRQGGYYWGQGTQVTVSS | high polyreactivity |
| QVQLVESGGGLVQAGGSLRLSCDASGRTFRYYAMGWSRQAPGKERELVAAISASGGSTFYADSVKGRFTISRDNAKNSVYLQMKSLKPEDTAVYYCAAYHYCVFPYKQYDYWGQGTQVTVSS | high polyreactivity |
| QVQLVESGGGLVQAGGSLRLSCAASGGTFSPYYMGWYRQAPGKEREFVASITGSGGSTYYADSVKGRFTISRGNAKNTVYVQMNSLKPEDTAVYYCAAQCYWTYWPYLLRLYDYWGQGTQVTVSS | low polyreactivity |
| QVQLVESGGGLVQAGGSLRLSCAASGIIFGYYSMGWYRQAPGKERDLVAAITWSGGSTYYADSVKGRFTISRDYAKNTVYLQMNSLKPEDTAVYYCNALGWYGDYDYWGQGTQVTVSS | low polyreactivity |
| QGQLVESGGGLVQAGGSLRLSCAASGSTFDNYAMGWYRQAPGKERELVAAISSSSSRTYYADSVKGRFTISRDNAKNTVYLQMNSLKPADTAVYYCAKRRSIGYYYWGQGTQVTVSS | high polyreactivity |
| QVQLVESGGGLVQAGGSLRLSCAASGRIFDDYAMGRYRQAPGKERELVAAISWSGGSTYYADSVKGRFTISRDNAKNTVYLQMNSQKPVDTAVYYCSAPYHSYKRIGYDYWGQGTQVSVSS | low polyreactivity |
| QVQLVESGGGLVQAGGSLRLSCAPSGYIFYDNAMGWYRQAPGKEREFVAAITFSGDSTDYADSVKGRFTISRDNAKNTVYLQMNSLKPEDTAVYYFNTVYYRYYIELYFSSYDYWGQGTQVTVSS | high polyreactivity |
| QVQLVESGGGLVQAGVSLRLSCAASGITLYRYVMGWNRQAPGKERELVADISGRGTSTYYADSVKGRFTSSRDYAKNTVYLQMYRLKPEATAVYYCNAEYTKTGALGIPYTYYYAEDYWGQGTQVTVSS | low polyreactivity |
| QVQLVESGGGLVQAGGSIRLSCAASGNTFRWYAMGWYRQAPGKEREFVAAISSSGGSTYYADSVKGRFTISRDNAKNTVYLQMNSLKPEDTAVYYCTAASVTRHVSFATDYEYWGQGTQVTVSS | high polyreactivity |
| QVQLVESGGGLVQAGGSLRLSCAASGLTFNHNAMGWYRQAPGKERELVAAISRRGGSTYYADSVKGRFTISRDNAKNTVYLQMNSLKPEDTAVYYCNAPVKVRATTNWEYDYWGQGTQVTVSS | high polyreactivity |
| QVQLVESGGGFVQAGGSLRLSCAASGITFYSNAMGWYRQAPGKERELGAAISTTGGRTYYADSVKRRFTISRDNAKNTVYLHMNSLKPEDTAVYYCTKAWGRGSLTEPYDYWGQGTQVTVSS | high polyreactivity |
| QVQLVESGGGLVQAGGSLRLSCAASGFIFWYYAMGWYRQAPGKERELVATITTGGGTNYADSVKGRFTISRDNAKNTVYLQMNSLKPEDTAVYYCNADFRWYAEDDYWGQGTQVTVSS | low polyreactivity |

| Sequence | polyreactivity (PSR sort gate) |
| --- | --- |
| QVQLVESGGGLVQAGGSLRLSCAASGIIFSDYTMGWYRQAPGKERELVAAITWSGASTYYADSVKGRFTISRDNAKNTVYLQMNSLKPEDTAVYYCAAREYWYPGYVSWFDYWGQGTQVTVSS | high polyreactivity |
| QVQRVESGGGLVQAGGSLRLSCAASGGTFAFNTMGWYRQAPGIERELVADISSGGSTNYADSVKGRFTISRDNAKNTVYLQMNRLKPVDSAVYYGNGGWDILYLQGDLDYWGQGTQVTVSS | low polyreactivity |
| KVQLVESGGGLVQAGGRLRLSCAPSGSIFGTNTMGWYRQAPGTERELVAAIRLSDSSTYYADSVKGRFTISRDNAKNTVYLQMKSLKPEDTAVYDCAVDYRAYHYYRYDYWGQGTQVTVSS | low polyreactivity |
| QVQLVESGGGLVQAGGSLRLSCAASGRIFATYAMGWYRQAPGKERELVARITFTSGSTYYADSVKGRFTISRDNAKNTVYLQMNSLKPEDTAVYYCAAPWSVTRTSFDYWGQGTQVTVSS | high polyreactivity |
| QVQLVESGGGLVQAGGSLRLSCAASGYIFKNYAMGWYRQAPGKERELVAAITRRGASTYYADSVKGRFTISRDNAKNTVYLQMNSLKPEDTAVYYCAAYPWPPGEYDYWGQGTQVTVSS | low polyreactivity |
| QVQLVESGGGLVQAGGSLRLSCAASGRIFRAYTMGWYRPAPGKERELVAAISTRSGRTYYADSVKGRFTISRDKEKNTVYLQMNSLKPEDTAVYYCAADRSGSAWYGYWGQGTQVTVSS | high polyreactivity |
| QVHLVESGVGLVQARGSLRLSCASSGSTFGGNAMGWYRQAPGTERELVAAIDSGGGTNYADSVKGRFTIARDNAKNTVYLQMTSLKPEDTAVYYCNADWAVRSTQNSSSGHDYWGQATQVTVSS | low polyreactivity |
| QVQILESGGGLVQAGGSLRLSCAASGRIFGGYAMGWYRQAPGKERELVAAIRWRGGRTYYADSVKGRFTISRDNAKNTVYLQMNSLKPEDTAVYYCAADYSFTGHRYTYGYWGQGTQVTVSS | high polyreactivity |
| QVQLVESGGGLVQAGGSLRLSCAASGSTFYLYAMGWYRQAPGKERELVATITNGGGTNYADSVKGRFTISRDNAKNTVYLQMNSLKAEDTAVYYCAAKWYHRDGDYWGQGTQVTVSS | low polyreactivity |
| QVQLVESGGGLVQAGGSLRLSCAASGLIITAYAMGWYRQAPGKERELVAAITGSGGRTYYADSVKGRFTISRDNAKNTVYLQMNSLKPEDTAVYYCAADFPARGSSTSDYWGQGTQVTVSS | high polyreactivity |
| QVQLQESGGGLVQAGGSLRLSCAASGNISVTGFMGWYRQATGKERELVASIGIGGTTYYADSVKGRFSISRDNAKNTVYLQMNSLKPEDTAVYYCAARYLYYAYSYWGQGTQVTVSS | low polyreactivity |
| QVQLVESGGGLVQAGGSLRLSCAASGRIFLKYAMGWYRQAPGKERELVAAISRRGASTYYADSVKGRFTISRDNSKNTVYLQMNSLKPEDTAVYYCKARTSSGMDYWGQGTQVTVSS | high polyreactivity |
| QVQLVESGGGLDQAGGSLRLICAASGRTFATNTMVWYRQAPGKERELVAAITFSGGSTYYADSVKGRFTISRDNEKNSVYLQMNSLKPEETAVYYCNVRSPYYSYRYRYGYWGQGTQVTVSS | high polyreactivity |
| QVQLVESGGGLVQAGGSLRLSCAASGRIFLYNTMGWYRQAPGKERELVARISWSGGSTKYADSVKGRFTISRDNAKNTVYLQMNSLKPEDTAVYYCNAGYFTEYNSWGQGTQVTVSS | high polyreactivity |
| QVQLVESGGGLVQAGGSLRLSCAASGIIFLNYDIGWYRPAPGKERELVAAITTSGASTYYADSVKGRFTISRDNAKNTVYLQMNSLKREDTAVYYCAAVFRHARYRYDYWGQGTQVTVSS | high polyreactivity |
| QVQLVESGGGLVHAGGSLRLSCAASGSIFPDNTMGWYRQAPGKERELVAAIDGRGGTTYYADSVKGRFTISRDNAKNTVYLQMNSLKPEDTAVYYCARDIGHSARYDYWGQGTQVTVSS | low polyreactivity |
